The data set deals with the molecule itself. As to the kind of experiment: cryo-EM structure.

Values joined by “and” are separate entries in the source; they are usually repeats but may differ in a detail not shown here. Equal values may be shown once.

B1: HMPV nucleoprotein N, full length, strain NL1-00 (A1), RNA-bound oligomers (N-RNA) (natural protein, UniProt Q91F57 1-394, looked up)
chain: MSLQGIHLSDLSYKHAILKESQYTIKRDVGTTTAVTPSSLQQEITLLCGEILYAKHADYKYAAEIGIQYISTALGSERVQQILRNSGSEVQVVLTRTYSLGKIKNNKGEDLQMLDIHGVEKSWVEEIDKEARKTMATLLKESSGNIPQNQRPSAPDTPIILLCVGALIFTKLASTIEVGLETTVRRANRVLSDALKRYPRMDIPKIARSFYDLFEQKVYHRSLFIEYGKALGSSSTGSKAESLFVNIFMQAYGAGQTMLRWGVIARSSNNIMLGHVSVQAELKQVTEVYDLVREMGPESGLLHLRQSPKAGLLSLANCPNFASVVLGNASGLGIIGMYRGRVPNTELFSAAESYAKSLKESNKINFSSLGLTDEEKEAAEHFLNVSDDSQNDYE
The stoichiometry N is the number of molecules, sites or subunits per partner or assembly. B1: the “stoichiometry N” value is 10 protomers and 11 protomers and 12 protomers and ≥ 12 protomers.

(Values after article doi:10.1101/2023.06.10.544460 (bioRxiv, 2023).)
